Measurements as given in the RNAGym collection of RNA variant scans (doi:10.7554/elife.80360).

B1: CPEB3 Ribozyme (parent)
chain: GGGGGCCACAGCAGAAGCGUUCACGUCGCGGCCCCUGUCAGAUUCUGGUGAAUCUGCGAAUUCUGCUGU

Variants of: B1
Assay: self-cleavage, relative activity (ratio to wild type); higher = more cleavage; co-transcriptional

For U44G U69C, which self-cleavage is on record?
The self-cleavage was 1.04.

Which self-cleavage does the source give for U44G U69G here?
The self-cleavage was 1.04.

Which self-cleavage does the source give for U44G U64C here?
The self-cleavage was 0.754.

With U44G U64G as the variant, how does the self-cleavage read?
Its self-cleavage is 0.84.

With C45A G48C as the variant, how does the self-cleavage read?
The self-cleavage was 1.01.

With C45A G48U as the variant, how does the self-cleavage read?
The self-cleavage was 0.976.

Which self-cleavage does the source give for C45G C57U here?
The self-cleavage was 0.366.

With C45G C57G as the variant, how does the self-cleavage read?
The self-cleavage was 0.328.

For C45G C57A, which self-cleavage is on record?
The self-cleavage was 0.318.

Which self-cleavage does the source give for U46A G47A here?
Its self-cleavage is 1.01.

For U46A G47U, which self-cleavage is on record?
The self-cleavage was 0.991.

For C45A A51G, which self-cleavage is on record?
The self-cleavage was 1.02.

For C45A A51C, which self-cleavage is on record?
Its self-cleavage is 0.924.

For C45G U69A, which self-cleavage is on record?
Its self-cleavage is 1.01.

For C45G U69C, which self-cleavage is on record?
Its self-cleavage is 1.05.

With C45A G65C as the variant, how does the self-cleavage read?
Its self-cleavage is 0.533.

Which self-cleavage does the source give for C45A G65U here?
The self-cleavage was 0.729.

For C45U G68C, which self-cleavage is on record?
Its self-cleavage is 1.

With C45U G68U as the variant, how does the self-cleavage read?
The self-cleavage was 1.01.

With U46A U55A as the variant, how does the self-cleavage read?
The self-cleavage was 0.964.

With U46A U55C as the variant, how does the self-cleavage read?
The self-cleavage was 0.871.

With C45U U53C as the variant, how does the self-cleavage read?
Its self-cleavage is 0.834.

With C45A G56U as the variant, how does the self-cleavage read?
The self-cleavage was 0.695.

Which self-cleavage does the source give for C45A G56C here?
Its self-cleavage is 0.482.

For C45G C54G, which self-cleavage is on record?
Its self-cleavage is 0.688.

Which self-cleavage does the source give for C45G C54U here?
Its self-cleavage is 0.952.

Which self-cleavage does the source give for C45G U46A here?
Its self-cleavage is 0.631.

With C45G U46C as the variant, how does the self-cleavage read?
Its self-cleavage is 0.999.

For C45G U46G, which self-cleavage is on record?
The self-cleavage was 0.966.

With C45U G50A as the variant, how does the self-cleavage read?
The self-cleavage was 1.01.

With C45U G50C as the variant, how does the self-cleavage read?
The self-cleavage was 1.02.

With C45A G50A as the variant, how does the self-cleavage read?
The self-cleavage was 1.02.

For C45G U64C, which self-cleavage is on record?
The self-cleavage was 0.836.

Which self-cleavage does the source give for C45G U64G here?
The self-cleavage was 0.739.

Which self-cleavage does the source give for U44C U62C here?
Its self-cleavage is 0.572.

For U44C U62G, which self-cleavage is on record?
Its self-cleavage is 0.664.

Which self-cleavage does the source give for U44C C66G here?
Its self-cleavage is 0.464.

Which self-cleavage does the source give for U44C C66A here?
The self-cleavage was 0.502.

Which self-cleavage does the source give for U44C C66U here?
The self-cleavage was 0.928.

With U44C U46A as the variant, how does the self-cleavage read?
The self-cleavage was 0.958.

With U44C U46C as the variant, how does the self-cleavage read?
Its self-cleavage is 0.972.

With C45U G47U as the variant, how does the self-cleavage read?
Its self-cleavage is 1.02.

For C45U G47A, which self-cleavage is on record?
Its self-cleavage is 1.03.

With U46C G47A as the variant, how does the self-cleavage read?
The self-cleavage was 0.682.

With U46C G47C as the variant, how does the self-cleavage read?
Its self-cleavage is 1.02.

For U44G U62C, which self-cleavage is on record?
Its self-cleavage is 0.842.

For C45U, which self-cleavage is on record?
Its self-cleavage is 0.996.

With C45A as the variant, how does the self-cleavage read?
The self-cleavage was 0.984.

With C45G as the variant, how does the self-cleavage read?
The self-cleavage was 0.986.

Which self-cleavage does the source give for C45G U53G here?
Its self-cleavage is 0.858.

For C45G U53C, which self-cleavage is on record?
Its self-cleavage is 0.806.

Which self-cleavage does the source give for U44G C45A here?
The self-cleavage was 0.932.

Which self-cleavage does the source give for C45A A59C here?
The self-cleavage was 0.613.

For C45A A59U, which self-cleavage is on record?
The self-cleavage was 0.793.

With C45U U55A as the variant, how does the self-cleavage read?
Its self-cleavage is 0.825.

With C45U U55G as the variant, how does the self-cleavage read?
Its self-cleavage is 0.668.

With C45U U55C as the variant, how does the self-cleavage read?
The self-cleavage was 0.755.

For U46C U64A, which self-cleavage is on record?
The self-cleavage was 0.877.

For C45U U69C, which self-cleavage is on record?
Its self-cleavage is 1.08.

Which self-cleavage does the source give for C45U U69A here?
Its self-cleavage is 1.05.

Which self-cleavage does the source give for C45G U62C here?
Its self-cleavage is 0.798.

With C45G U62G as the variant, how does the self-cleavage read?
Its self-cleavage is 0.81.

Which self-cleavage does the source give for U46A G56A here?
Its self-cleavage is 0.997.

For C45A U46G, which self-cleavage is on record?
Its self-cleavage is 0.917.

Which self-cleavage does the source give for C45A U46C here?
The self-cleavage was 1.

For C45A U46A, which self-cleavage is on record?
The self-cleavage was 1.01.

Which self-cleavage does the source give for U46C A60C here?
The self-cleavage was 0.339.

For U46C A60U, which self-cleavage is on record?
The self-cleavage was 0.472.

Which self-cleavage does the source give for C45G U61G here?
Its self-cleavage is 0.731.

Which self-cleavage does the source give for C45G U61A here?
The self-cleavage was 0.922.

Which self-cleavage does the source give for C45G U61C here?
The self-cleavage was 0.757.

For U44C C45A, which self-cleavage is on record?
Its self-cleavage is 0.998.

Which self-cleavage does the source give for U44C C45U here?
The self-cleavage was 0.955.

With U46C U55A as the variant, how does the self-cleavage read?
The self-cleavage was 0.773.

With U46C U55G as the variant, how does the self-cleavage read?
Its self-cleavage is 0.768.

Which self-cleavage does the source give for U46C U55C here?
The self-cleavage was 0.701.

For U46A C54G, which self-cleavage is on record?
The self-cleavage was 0.971.

With U46A C54A as the variant, how does the self-cleavage read?
The self-cleavage was 0.933.

Which self-cleavage does the source give for C45U C66G here?
The self-cleavage was 0.87.

For C45U C66A, which self-cleavage is on record?
Its self-cleavage is 0.843.

For C45U U62A, which self-cleavage is on record?
The self-cleavage was 0.908.

With U46C U61A as the variant, how does the self-cleavage read?
The self-cleavage was 0.95.

For U46A A51C, which self-cleavage is on record?
Its self-cleavage is 0.99.

Which self-cleavage does the source give for U46A A51U here?
The self-cleavage was 1.01.
